For test [1], the target named is T1, Fusion protein of extracellular domain of human TIGIT and His-tag (human TIGIT ECD-his) (human).
T1 chain: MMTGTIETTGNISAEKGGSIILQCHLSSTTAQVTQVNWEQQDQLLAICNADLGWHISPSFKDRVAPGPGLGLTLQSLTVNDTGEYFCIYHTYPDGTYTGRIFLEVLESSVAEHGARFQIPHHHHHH
Briefly: BIAcore. For orientation: SPR reads the build-up and loss of mass on a sensor chip optically.

The target in test [2] is T2, Fusion protein of extracellular domain of human TIGIT and mouse IgG2a Fc fragment (human TIGIT ECD-mFc) (human).
T2 construct: The entry includes the signal peptide (limits not recoverable) and the mouse IgG2a Fc
T2 chain: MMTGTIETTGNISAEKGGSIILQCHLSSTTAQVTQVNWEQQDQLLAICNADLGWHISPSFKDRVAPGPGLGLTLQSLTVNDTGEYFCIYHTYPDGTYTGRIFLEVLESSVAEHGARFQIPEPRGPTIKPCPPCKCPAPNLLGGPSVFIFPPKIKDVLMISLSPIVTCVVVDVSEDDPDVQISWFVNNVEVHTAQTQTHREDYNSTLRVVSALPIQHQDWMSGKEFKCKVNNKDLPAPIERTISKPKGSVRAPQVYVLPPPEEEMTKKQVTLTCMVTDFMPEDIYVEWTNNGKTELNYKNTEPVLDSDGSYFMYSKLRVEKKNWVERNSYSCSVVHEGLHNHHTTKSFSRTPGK
As to the kind of experiment: ELISA, human TIGIT ECD-mFc. Put shortly:
(§1)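 Antibodies diluted to 13 nM in 1% BSA, then 3-fold serial dilution for 12 concentrations, incubated with milk-blocked plates at 37° C for 1.5-2 h. Bound antibody detected with HRP-labelled secondary antibody (1:5000, 37° C, 1 h) and TMB, stopped with 1M HCl; OD450 nm read.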
On the technique in general: An ELISA detects its analyte on a solid surface through an enzyme-linked reagent.

The target in test [3] is T3, Fusion protein of extracellular domain of human TIGIT and human IgG1 Fc fragment (human TIGIT ECD-hFc) (human).
T3 construct: The entry includes the signal peptide (limits not recoverable) and the human IgG1 Fc
As to the kind of experiment: blocking of TIGIT ECD-hFc binding to CHO-K1 CD155 cells. In short, it runs like this: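 Inhibition was expressed as IC50 values derived from the inhibition curves of a cell-based ELISA. CHO-K1 CD155 cells were cultured overnight, fixed, and blocked with 5% skim milk-PBS. Antibodies were first premixed for 0.5 h with human TIGIT ECD-hFc at a working concentration of 30 ng/mL, and the mixture was then added to the cells for 1.5-2 h at 37° C. Bound TIGIT was detected with HRP secondary antibody (1:5000, 37° C, 1 h) and TMB, and read as OD450 nm.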

Test [4] concerns the target T4, Full-length cynomolgus monkey TIGIT on CHO-K1 cells (CHO-K1 cynomolgus monkey TIGIT) (cynomolgus monkey).
T4 construct: NCBI XP_015300911.1
Briefly: cell binding, CHO-K1 cynomolgus monkey TIGIT. Put shortly: (§2)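 Binding was measured by flow cytometry after a 60-minute, 4° C incubation of the antibodies with 2×10⁵ CHO-K1 cells displaying full-length human or cynomolgus monkey TIGIT. Antibody titration: 12 points, threefold serial dilution from 80 nM, in 1% BSA-PBS.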

The target in test [5] is T5, Fusion protein of extracellular domain of cynomolgus monkey TIGIT and mouse IgG2a Fc fragment (cynomolgus … (cynomolgus monkey)).
T5 construct: The entry includes the signal peptide (limits not recoverable) and the mouse IgG2a Fc
Briefly: ELISA, cynomolgus monkey TIGIT ECD-mFc. Put shortly:
as §1

Test [6] addresses T1, Fusion protein of extracellular domain …. Briefly: BIAcore; KD ratio to TIGIT-CHI-006.
In test [7] the target is T6, Full-length human TIGIT on CHO-K1 cells (CHO-K1 human TIGIT) (human, UniProt Q495A1 22-244).
T6 construct: NCBI XP_024309156.1; the entry includes the signal peptide (limits not recoverable); The strain (high, medium, low) is named under assay; also called high expression strain 1D2; medium expression strain 2D10
T6 sequence: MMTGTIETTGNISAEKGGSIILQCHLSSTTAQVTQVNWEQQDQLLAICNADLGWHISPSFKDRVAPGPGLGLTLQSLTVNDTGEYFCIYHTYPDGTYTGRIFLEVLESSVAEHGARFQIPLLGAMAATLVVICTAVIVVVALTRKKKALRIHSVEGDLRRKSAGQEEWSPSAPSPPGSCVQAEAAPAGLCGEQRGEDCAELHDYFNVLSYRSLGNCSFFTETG
As to the kind of experiment: cell binding, CHO-K1 human TIGIT high expression strain. In short, it runs like this: as §2

Substitutions are numbered along the chain they refer to.

As a reminder, the Kd is the free concentration of one partner at which half of the binding sites on the other are occupied at equilibrium, for simple one-to-one binding. Usually koff stands for a measure of how fast the partners let go of each other. As a reminder, the kon is the rate constant with which the complex forms. In general, EC50 refers to the concentration giving half of the maximal effect. By IC50 is commonly meant the midpoint of a concentration-inhibition curve.

T3 sequence (chain, as listed by the source limits assumed): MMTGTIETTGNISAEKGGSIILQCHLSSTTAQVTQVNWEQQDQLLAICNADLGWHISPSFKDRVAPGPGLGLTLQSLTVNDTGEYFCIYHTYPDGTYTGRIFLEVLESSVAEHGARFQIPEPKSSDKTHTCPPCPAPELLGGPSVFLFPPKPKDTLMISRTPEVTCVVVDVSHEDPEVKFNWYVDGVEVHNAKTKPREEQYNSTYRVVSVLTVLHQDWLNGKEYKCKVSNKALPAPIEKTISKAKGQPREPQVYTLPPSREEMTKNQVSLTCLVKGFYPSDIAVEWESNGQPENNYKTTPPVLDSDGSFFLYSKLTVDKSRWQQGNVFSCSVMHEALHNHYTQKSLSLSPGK
T4 sequence (chain, as listed by the source limits assumed): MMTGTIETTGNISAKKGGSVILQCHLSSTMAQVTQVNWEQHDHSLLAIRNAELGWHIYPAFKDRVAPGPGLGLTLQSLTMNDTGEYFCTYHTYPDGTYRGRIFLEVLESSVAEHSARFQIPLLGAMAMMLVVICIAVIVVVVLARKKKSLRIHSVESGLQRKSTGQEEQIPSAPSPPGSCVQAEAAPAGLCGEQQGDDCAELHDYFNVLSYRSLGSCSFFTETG

B1: TIGIT-006-H2L3 (antibody, V domains shown)
VH: EVQLQESGPGLVKPSETLSLTCAVSGYSMTSDYWNWIRQPPGKGLEWIGYISYSGRTYYNPSLKSRVTISRDTSKNQFSLKLSSVTAADTAVYYCARGDYSNYGGAMYDWGQGTTVTVSS
VL: DIVMTQSPDSLAVSLGERATINCRASQGVSTTIAWYQQKPGQSPKLLIYSASYRYTGVPRFSGSGSGTDFTLTISSLQAEDVAVYYCQQYYSSPFTFGGGTKVEIK
notes: Humanized anti-TIGIT antibody
B1 yielded a Kd in test [1] of 0.515 nM. Besides, the koff in test [1] is 0.000216 s⁻¹. The kon in test [1] was found to be 420000 M⁻¹ s⁻¹. The EC50 was determined as 0.0103 nM in test [2], 0.255 nM in test [4], 24.4 nM in test [5] and 0.0353 nM in test [7]. In test [3], this molecule had a half-maximal inhibitory concentration (IC50) of 0.633 nM. For the same molecule, in test [6], the “Fold change vs chimeric antibodies (KD)” value was found to be 6.65 fold.

B2: TIGIT-006-H1L3 (antibody, V domains shown)
VH: B1 VH with M29I
VL: B1 VL
notes: Humanized anti-TIGIT antibody
Consider B2, for which the affinity in test [1], expressed as Kd, was 2.66 nM. The molecule further gave a koff in test [1] of 0.000384 s⁻¹. Further, the kon in test [1] is 144000 M⁻¹ s⁻¹. For the same molecule, the concentration giving a half-maximal response (EC50) in test [2] came out at 0.0185 nM; in test [7], 0.0596 nM. For the same molecule, the concentration for half-maximal inhibition (IC50) in test [3] turned out to be 1.23 nM. Besides, the binding result in test [4] and in test [5] was “no binding” throughout. Besides, the “Fold change vs chimeric antibodies (KD)” value in test [6] was found to be 34.4 fold.

B3: TIGIT-006-H3L3 (antibody, V domains shown)
VH: B1 VH with G44K
VL: B1 VL
notes: Humanized anti-TIGIT antibody
Molecule B3 returned a Kd in test [1] of 0.482 nM. Besides, in test [1], the off-rate constant (koff) was determined as 0.000176 s⁻¹. In addition, in test [1], the kon worked out at 365000 M⁻¹ s⁻¹. For the same molecule, the EC50 amounted to 0.0095 nM in test [2], 6.29 nM in test [4], 0.779 nM in test [5] and 0.0317 nM in test [7]. The molecule also displayed an IC50 in test [3] of 0.681 nM. For the same molecule, the “Fold change vs chimeric antibodies (KD)” value in test [6] stood at 6.23 fold.
